Reference: IntAct's records for PubMed 31515488

B1: Golgin-45 (Homo sapiens), Q9H2G9 (parent)
chain: MTTKNLETKVTVTSSPIRGAGDGMETEEPPKSVEVTSGVQSRKHHSLQSPWKKAVPSESPGVLQLGKMLTEKAMEVKAVRILVPKAAITHDIPNKNTKVKSLGHHKGEFLGQSEGVIEPNKELSEVKNVLEKLKNSERRLLQDKEGLSNQLRVQTEVNRELKKLLVASVGDDLQYHFERLAREKNQLILENEALGRNTAQLSEQLERMSIQCDVWRSKFLASRVMADELTNSRAALQRQNRDAHGAIQDLLSEREQFRQEMIATQKLLEELLVSLQWGREQTYSPSVQPHSTAELALTNHKLAKAVNSHLLGNVGINNQKKIPSTVEFCSTPAEKMAETVLRILDPVTCKESSPDNPFFESSPTTLLATKKNIGRFHPYTRYENITFNCCNHCRGELIAL
partner: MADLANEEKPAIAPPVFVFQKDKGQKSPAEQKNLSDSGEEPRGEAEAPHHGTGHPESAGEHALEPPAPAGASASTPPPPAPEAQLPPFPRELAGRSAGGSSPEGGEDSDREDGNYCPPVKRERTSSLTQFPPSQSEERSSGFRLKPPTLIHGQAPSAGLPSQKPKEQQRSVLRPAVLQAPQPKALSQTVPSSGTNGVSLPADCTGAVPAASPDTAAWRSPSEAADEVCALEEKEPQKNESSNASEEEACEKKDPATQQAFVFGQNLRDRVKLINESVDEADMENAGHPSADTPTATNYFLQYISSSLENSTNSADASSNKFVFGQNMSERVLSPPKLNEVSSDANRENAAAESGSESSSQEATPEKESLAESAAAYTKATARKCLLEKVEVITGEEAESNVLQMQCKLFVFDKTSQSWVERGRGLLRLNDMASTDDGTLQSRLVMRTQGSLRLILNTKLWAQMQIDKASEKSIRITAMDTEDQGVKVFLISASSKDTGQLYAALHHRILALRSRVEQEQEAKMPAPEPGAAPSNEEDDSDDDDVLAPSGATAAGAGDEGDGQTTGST
B2: DNA topoisomerase 3-beta-1 (Homo sapiens), O95985 (parent)
chain: MKTVLMVAEKPSLAQSIAKILSRGSLSSHKGLNGACSVHEYTGTFAGQPVRFKMTSVCGHVMTLDFLGKYNKWDKVDPAELFSQAPTEKKEANPKLNMVKFLQVEGRGCDYIVLWLDCDKEGENICFEVLDAVLPVMNKAHGGEKTVFRARFSSITDTDICNAMACLGEPDHNEALSVDARQELDLRIGCAFTRFQTKYFQGKYGDLDSSLISFGPCQTPTLGFCVERHDKIQSFKPETYWVLQAKVNTDKDRSLLLDWDRVRVFDREIAQMFLNMTKLEKEAQVEATSRKEKAKQRPLALNTVEMLRVASSSLGMGPQHAMQTAERLYTQGYISYPRTETTHYPENFDLKGSLRQQANHPYWADTVKRLLAEGINRPRKGHDAGDHPPITPMKSATEAELGGDAWRLYEYITRHFIATVSHDCKYLQSTISFRIGPELFTCSGKTVLSPGFTEVMPWQSVPLEESLPTCQRGDAFPVGEVKMLEKQTNPPDYLTEAELITLMEKHGIGTDASIPVHINNICQRNYVTVESGRRLKPTNLGIVLVHGYYKIDAELVLPTIRSAVEKQLNLIAQGKADYRQVLGHTLDVFKRKFHYFVDSIAGMDELMEVSFSPLAATGKPLSRCGKCHRFMKYIQAKPSRLHCSHCDETYTLPQNGTIKLYKELRCPLDDFELVLWSSGSRGKSYPLCPYCYNHPPFRDMKKGMGCNECTHPSCQHSLSMLGIGQCVECESGVLVLDPTSGPKWKVACNKCNVVAHCFENAHRVRVSADTCSVCEAALLDVDFNKAKSPLPGDETQHMGCVFCDPVFQELVELKHAASCHPMHRGGPGRRQGRGRGRARRPPGKPNPRRPKDKMSALAAYFV
partner: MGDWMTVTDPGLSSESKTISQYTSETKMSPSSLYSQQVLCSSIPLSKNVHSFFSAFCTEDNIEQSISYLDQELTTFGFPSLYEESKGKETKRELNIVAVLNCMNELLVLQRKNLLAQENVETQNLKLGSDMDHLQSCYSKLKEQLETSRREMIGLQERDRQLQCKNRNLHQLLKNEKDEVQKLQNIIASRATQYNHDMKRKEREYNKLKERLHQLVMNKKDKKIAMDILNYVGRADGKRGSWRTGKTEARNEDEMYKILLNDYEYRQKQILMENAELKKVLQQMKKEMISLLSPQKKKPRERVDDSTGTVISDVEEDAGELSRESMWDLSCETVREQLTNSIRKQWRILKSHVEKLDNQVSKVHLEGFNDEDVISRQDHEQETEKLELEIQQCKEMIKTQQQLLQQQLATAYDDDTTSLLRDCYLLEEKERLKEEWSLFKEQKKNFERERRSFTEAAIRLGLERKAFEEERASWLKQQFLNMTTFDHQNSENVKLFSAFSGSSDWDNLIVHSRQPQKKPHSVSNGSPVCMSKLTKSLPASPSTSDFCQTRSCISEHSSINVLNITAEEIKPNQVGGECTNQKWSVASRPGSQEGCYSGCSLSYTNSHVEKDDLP
B3: Protein LDOC1 (Homo sapiens), O95751 (parent)
chain: MVDELVLLLHALLMRHRALSIENSQLMEQLRLLVCERASLLRQVRPPSCPVPFPETFNGESSRLPEFIVQTASYMLVNENRFCNDAMKVAFLISLLTGEAEEWVVPYIEMDSPILGDYRAFLDEMKQCFGWDDDEDDDDEEEEDDY
partner: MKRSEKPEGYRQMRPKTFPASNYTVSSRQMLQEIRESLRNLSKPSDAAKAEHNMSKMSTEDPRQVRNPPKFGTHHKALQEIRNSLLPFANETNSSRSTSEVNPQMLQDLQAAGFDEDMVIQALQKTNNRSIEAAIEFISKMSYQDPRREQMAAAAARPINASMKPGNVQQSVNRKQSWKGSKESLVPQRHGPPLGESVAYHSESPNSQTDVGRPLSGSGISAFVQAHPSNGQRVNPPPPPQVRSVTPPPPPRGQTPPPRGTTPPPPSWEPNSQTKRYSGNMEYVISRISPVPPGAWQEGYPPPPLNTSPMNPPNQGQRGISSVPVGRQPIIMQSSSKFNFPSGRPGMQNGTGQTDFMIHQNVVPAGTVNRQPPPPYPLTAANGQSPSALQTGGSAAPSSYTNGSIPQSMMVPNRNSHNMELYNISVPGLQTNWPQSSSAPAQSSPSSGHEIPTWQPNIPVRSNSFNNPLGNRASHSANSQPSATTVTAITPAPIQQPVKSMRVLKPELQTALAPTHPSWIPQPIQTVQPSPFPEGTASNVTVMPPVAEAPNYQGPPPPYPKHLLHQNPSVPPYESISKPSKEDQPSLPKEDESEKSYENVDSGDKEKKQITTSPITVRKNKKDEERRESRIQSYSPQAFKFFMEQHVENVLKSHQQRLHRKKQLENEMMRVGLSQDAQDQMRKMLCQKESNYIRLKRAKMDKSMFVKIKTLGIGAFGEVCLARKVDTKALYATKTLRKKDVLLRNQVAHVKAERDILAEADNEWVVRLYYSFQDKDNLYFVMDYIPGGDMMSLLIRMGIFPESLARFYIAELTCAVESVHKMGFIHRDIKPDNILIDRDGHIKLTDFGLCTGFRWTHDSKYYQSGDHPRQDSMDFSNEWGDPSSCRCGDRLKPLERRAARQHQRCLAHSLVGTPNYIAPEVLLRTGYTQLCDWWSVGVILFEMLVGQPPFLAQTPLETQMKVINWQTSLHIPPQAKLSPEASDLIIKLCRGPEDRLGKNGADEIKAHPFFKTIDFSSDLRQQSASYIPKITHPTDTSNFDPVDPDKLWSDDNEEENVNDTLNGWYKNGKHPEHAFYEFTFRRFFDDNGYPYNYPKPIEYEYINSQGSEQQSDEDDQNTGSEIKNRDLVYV
B4: Protein FAM9B (Homo sapiens), Q8IZU0 (parent)
chain: MAAWGKKHAGKDPVRDECEERNRFTETREEDVTDEHGEREPFAETDEHTGANTKKPEDTAEDLTAKRKRMKMDKTCSKTKNKSKHALRKKQLKRQKRDYIHSLKLLNVLEEYITDEQKEEEEEEGEEEELIRIFQEQQKKWQQYRSVRRERLKEMKLLRDQFVKALEDFEDLCDRVFSDEDSELDN
partner: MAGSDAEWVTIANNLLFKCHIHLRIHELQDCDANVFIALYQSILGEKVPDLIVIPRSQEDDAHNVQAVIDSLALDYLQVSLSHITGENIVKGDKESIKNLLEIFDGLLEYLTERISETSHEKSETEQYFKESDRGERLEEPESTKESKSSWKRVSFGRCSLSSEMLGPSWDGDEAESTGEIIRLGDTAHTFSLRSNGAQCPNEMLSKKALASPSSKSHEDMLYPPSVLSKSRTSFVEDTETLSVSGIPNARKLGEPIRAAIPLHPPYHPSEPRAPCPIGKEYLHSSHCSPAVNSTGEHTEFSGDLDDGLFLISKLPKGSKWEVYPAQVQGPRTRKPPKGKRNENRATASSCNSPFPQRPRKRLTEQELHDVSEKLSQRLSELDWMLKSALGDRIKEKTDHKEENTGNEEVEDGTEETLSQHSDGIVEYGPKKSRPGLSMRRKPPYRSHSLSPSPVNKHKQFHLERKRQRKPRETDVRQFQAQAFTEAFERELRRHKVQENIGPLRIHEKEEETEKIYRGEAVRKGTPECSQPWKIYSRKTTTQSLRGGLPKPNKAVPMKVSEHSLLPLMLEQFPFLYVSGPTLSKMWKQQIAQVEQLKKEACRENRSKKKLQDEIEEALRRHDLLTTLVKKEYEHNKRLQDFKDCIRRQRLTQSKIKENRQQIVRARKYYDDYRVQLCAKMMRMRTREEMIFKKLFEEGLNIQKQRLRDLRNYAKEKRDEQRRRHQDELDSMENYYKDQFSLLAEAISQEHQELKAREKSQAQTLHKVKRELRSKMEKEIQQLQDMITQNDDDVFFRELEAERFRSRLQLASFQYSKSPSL

Variants of: B1
Details: with ranb3_human RANBP3, Q9H6Z4
For Q40R, the “effect of a mutation on the interaction” value was “with no effect”.
In the case of H45R, the “effect of a mutation on the interaction” value is reported as “with no effect”.

Variants of: B2
Details: with adip_human SSX2IP
In the case of R267W, the “effect of a mutation on the interaction” value is reported as “disrupting interaction strength”.

Variants of: B3
Details: with lats1_human LATS1, O95835
L12H was tested, and the “effect of a mutation on the interaction” value was “disrupting interaction strength”.

Variants of: B4
Details: with cep95_human CEP95, Q96GE4
In the case of R23H, the “effect of a mutation on the interaction” value is reported as “with no effect”.
